From PMC5435868, “Crystal structure of U2 snRNP SF3b components: Hsh49p in complex with Cus1p-binding domain” (RNA, 2017)
Numbering of substitutions follows the chain as printed. Each block holds one molecule with its values, some of them ahead of it.

What was measured:
[1] = target: T1, Hsh49p (Saccharomyces cerevisiae) (UniProt Q99181); experiment: fluorescence anisotropy; settings: 20 mM K-Hepes pH 7.5, 125 mM KCl, 1 mM EDTA, 5 mM DTT, 0.01% Igepal, E. coli tRNA (100 ng FA, 500 ng EMSA), 22°C 20 min; EMSA gels at 4°C
T1 sequence: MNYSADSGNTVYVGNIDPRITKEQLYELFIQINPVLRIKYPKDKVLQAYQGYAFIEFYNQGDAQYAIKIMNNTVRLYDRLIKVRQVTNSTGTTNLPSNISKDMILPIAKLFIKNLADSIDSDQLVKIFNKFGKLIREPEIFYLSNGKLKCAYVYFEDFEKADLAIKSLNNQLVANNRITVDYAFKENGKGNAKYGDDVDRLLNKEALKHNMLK

Hsh49p = target: T2, Hsh49p (Saccharomyces cerevisiae, UniProt Q99181 1-213); experiment: EMSA; up to 1.5 µM protein, E. coli tRNA; 20 mM K-Hepes pH 7.5, 125 mM KCl, 1 mM EDTA, 5 mM DTT, 0.01% Igepal, E. coli tRNA (100 ng FA, 500 ng EMSA), 22°C 20 min; EMSA gels at 4°C; settings: protein: recombinant, tags: His-TEV tag (cleaved), label: 3' fluorescein
T2 sequence: T1 sequence

Hsh49p;Cus1(290-368)p [2] = target: T3, Hsh49p;Cus1(290-368)p (Saccharomyces cerevisiae;Saccharomyces …, UniProt Q99181;Q02554 1-213;290-368, |); experiment: as above; settings: protein: recombinant;recombinant, tags: His-TEV tag (cleaved);none stated, coexpressed, copies: 1;1, label: 3' fluorescein
T3 sequence 1: T1 sequence
T3 sequence 2: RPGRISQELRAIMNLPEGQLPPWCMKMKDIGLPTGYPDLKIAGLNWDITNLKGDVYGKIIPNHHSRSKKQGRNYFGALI

[3] = target: T4, Hsh49p Tyr152Ala-Tyr154Ala (RRM2 mutant);Cus1(290-350)p (Saccharomyces cerevisiae;Saccharomyces …, UniProt Q99181;Q02554 1-213;290-350, Y152A;Y154A|); experiment: fluorescence anisotropy; mutation has no effect; 20 mM K-Hepes pH 7.5, 125 mM KCl, 1 mM EDTA, 5 mM DTT, 0.01% Igepal, E. coli tRNA (100 ng FA, 500 ng EMSA), 22°C 20 min; EMSA gels at 4°C; settings: protein: recombinant;recombinant; tags: His-TEV tag (cleaved);none stated; coexpressed; copies: 1;1; label: 3' fluorescein; hairpin with 5' single strand
T4 sequence 1: T1 sequence with Y152A, Y154A
T4 sequence 2: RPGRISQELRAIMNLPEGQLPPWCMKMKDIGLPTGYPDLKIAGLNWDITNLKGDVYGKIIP

[4] = target: T5, Hsh49p Tyr52Ala-Phe54Ala (RRM1 mutant);Cus1(290-350)p (Saccharomyces cerevisiae;Saccharomyces …, UniProt Q99181;Q02554 1-213;290-350, Y52A;F54A|); experiment: fluorescence anisotropy; 20 mM K-Hepes pH 7.5, 125 mM KCl, 1 mM EDTA, 5 mM DTT, 0.01% Igepal, E. coli tRNA (100 ng FA, 500 ng EMSA), 22°C 20 min; EMSA gels at 4°C; settings: protein: recombinant;recombinant; tags: His-TEV tag (cleaved);none stated; coexpressed; copies: 1;1; label: 3' fluorescein; hairpin with 5' single strand
T5 sequence 1: T1 sequence with Y52A, F54A
T5 sequence 2: T4 sequence 2

Hsh49p;Cus1(290-368)p [5] = target: T3, Hsh49p;Cus1(290-368)p; experiment: fluorescence anisotropy; similar to RRM1-Cus1(290-368)p; 20 mM K-Hepes pH 7.5, 125 mM KCl, 1 mM EDTA, 5 mM DTT, 0.01% Igepal, E. coli tRNA (100 ng FA, 500 ng EMSA), 22°C 20 min; EMSA gels at 4°C; settings: protein: recombinant;recombinant; tags: His-TEV tag (cleaved);none stated; coexpressed; copies: 1;1; label: 3' fluorescein; hairpin with 5' single strand
HisHsh49p = target: T6, HisHsh49p (S. cerevisiae, UniProt Q99181 1-213); experiment: pull-down; purified HisHsh49p–Cus1 complex (40 µM) cut with trypsin (10 µg/mL, 10 min, 22°C), His-tagged Hsh49p held on Ni-NTA resin; fragments told by N-terminal sequencing and MALDI-TOF; settings: both partners purified
T6 construct: Hsh49p, S. cerevisiae; Held on Ni-NTA resin by its His tag after the trypsin digest; also called His-tagged Hsh49p; source: E. coli, coexpressed with Cus1(121-392)p, purified as complex; not shown: His6, N-terminal, kept
T6 sequence (looked up): T1 sequence

Hsh49p RRM2 = target: T7, Hsh49p RRM2 (Saccharomyces cerevisiae, UniProt Q99181 108-185); experiment: fluorescence anisotropy; 20 mM K-Hepes pH 7.5, 125 mM KCl, 1 mM EDTA, 5 mM DTT, 0.01% Igepal, E. coli tRNA (100 ng FA, 500 ng EMSA), 22°C 20 min; EMSA gels at 4°C; settings: protein: recombinant; tags: His-TEV tag (cleaved); label: 3' fluorescein; hairpin
T7 sequence: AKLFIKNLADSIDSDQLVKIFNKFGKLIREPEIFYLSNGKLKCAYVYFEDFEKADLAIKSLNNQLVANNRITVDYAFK

Hsh49p;Cus1(290-368)p [6] = target: T3, Hsh49p;Cus1(290-368)p; experiment: as above; settings: protein: recombinant;recombinant; tags: His-TEV tag (cleaved);none stated; coexpressed; copies: 1;1; label: 3' fluorescein; hairpin with single-stranded flanks
Hsh49p;Cus1(290-368)p [7] = target: T3, Hsh49p;Cus1(290-368)p; experiment: fluorescence anisotropy; pseudouridines have no large effect; 20 mM K-Hepes pH 7.5, 125 mM KCl, 1 mM EDTA, 5 mM DTT, 0.01% Igepal, E. coli tRNA (100 ng FA, 500 ng EMSA), 22°C 20 min; EMSA gels at 4°C; settings: protein: recombinant;recombinant; tags: His-TEV tag (cleaved);none stated; coexpressed; copies: 1;1; label: 3' fluorescein; hairpin with single-stranded flanks

Molecule: ACGAAUCUCUUUGCCUUUUGGCUUAGAUCAAGUGUAGUAUCUGUUCU [5'SLIBPRS]
binding signal (fold weaker than Hsh49p-Cus1(290-368)p) [1]: 10

B1: BPRS (ssRNA)
RNA: UCAAGUGUAGUAUCUGUUCU
binding result (Hsh49p): no binding
binding result (Hsh49p;Cus1(290-368)p [2]): no binding

B2: 5'SLI (structured_RNA)
RNA: ACGAAUCUCUUUGCCUUUUGGCUUAGA
binding result (Hsh49p; hairpin with 5' single strand): no binding
binding result [3]: binds
binding signal [4]: ~10 fold lower affinity than wild type
binding result (Hsh49p;Cus1(290-368)p [5]): binds

binding result (HisHsh49p): binds
B3: Cus1p fragment comprising residues 285-355 (domain or fragment, S. cerevisiae, UniProt Q02554 285-355, looked up)
chain: MVDHKRPGRISQELRAIMNLPEGQLPPWCMKMKDIGLPTGYPDLKIAGLNWDITNLKGDVYGKIIPNHHSR
notes: also called digested Cus1p fragment; source: trypsin digest of the purified HisHsh49p-Cus1 complex made in E. coli

B4: SLI (structured_RNA)
RNA: UCUUUGCCUUUUGGCUUAGA
binding result (Hsh49p; hairpin): no binding
binding result (Hsh49p;Cus1(290-368)p [2]; hairpin): no binding

B5: SLIIa (structured_RNA)
RNA: UUUCAGUGUAACAACUGAAA
binding result (Hsh49p RRM2): no binding
binding result (Hsh49p; hairpin): no binding
binding result (Hsh49p;Cus1(290-368)p [2]; hairpin): no binding

B6: 5'SLIBPRS (structured_RNA)
RNA: ACGAAUCUCUUUGCCUUUUGGCUUAGAUCAAGUGUAGUAUCUGUUCU
binding signal (Hsh49p;Cus1(290-368)p [6]): ~10 fold stronger than Hsh49p alone

B7: 5'SLIBPRS-pseu (structured_RNA)
RNA: B6 RNA
modifications: pseudouridines around the BPRS (positions in figure)
binding result (Hsh49p;Cus1(290-368)p [7]): binds

B8: SLIIb (structured_RNA)
RNA: UGACCUCAAUGAGGCUCA
binding result (Hsh49p RRM2): no binding
binding result (Hsh49p; hairpin): no binding
binding result (Hsh49p;Cus1(290-368)p [2]; hairpin): no binding
